Data reported in the supplement of paper PMC10126150.
± gives the standard deviation of the averaged measurements.

system: ATP; assay: switch fluorescence ratio, 500 uM ATP over buffer (Cy3 cluster intensity, sum of 5 cycles each) (fold (ratio)); higher = stronger signal-on switching upon ATP binding; sequences stand for … in TCGTCGGCAGCGTCAGATGTGTATAAGAGACAGTTTTTTTTTTTTTTTTTTTTTTTTT…TC; conditions: aptamer strand: ATP DNA aptamer (quencher-CACCTGGGGGAGTATTGCGGAGGAAGG + anchor), 100 nM annealed; ATP concentration: 500 uM
Method in brief: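 Switching-strand clusters labelled with Cy3 on a modified Illumina MiSeq flow-cell were annealed to 100 nM quencher-labelled ATP aptamer, imaged in selection buffer, and re-imaged after 15 min with 500 uM ATP at 22 °C. This was done over five cycles with NaOH stripping and re-annealing in between. The fluorescence ratio is summed target-cycle over summed buffer-cycle Cy3 intensity per cluster, averaged per switch-domain sequence, excluding clusters outside 100-1000 RFU.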
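Further: ATP exposure 15 min at 22 °C before imaging.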

Sequence	switch fluorescence ratio
TGGGAAAGCT	1.256 ± 0.0016
TGGGAACACT	1.01 ± 0.033
TGGGAACTCG	0.99483 ± 0.00048
TGGGAAGAGC	1.025 ± 0.0038
TGGGAATGCG	1.013 ± 0.0026
TGGGAATTCC	1 ± 0.011
TGGGAATTGA	0.9976 ± 0.0057
TGGGACAGGG	1.03 ± 0.088
TGGGACATGC	0.987 ± 0.0088
TGGGACATTT	1.04 ± 0.057
TGGGACCCGT	1.04 ± 0.038
TGGGACCGGC	0.98 ± 0.021
TGGGACGATC	1.05 ± 0.028
TGGGACGTTT	0.934 ± 0.046
TGGGACTATT	1.01 ± 0.076
TGGGACTCGA	0.991 ± 0.035
TGGGACTTAG	1.017 ± 0.0022
TGGGACTTTT	1.01 ± 0.053
TGGGAGAAAC	1.09 ± 0.091
TGGGAGAGT	1.011 ± 0.0034
TGGGAGAGTG	0.994 ± 0.0055
TGGGAGGAAT	0.988 ± 0.037
TGGGAGGAGT	1 ± 0.048
TGGGAGGATT	1 ± 0.027
TGGGAGGCAT	1.01 ± 0.027

Sequence	switch fluorescence ratio
TGGGAGGGTC	1.12 ± 0.14
TGGGAGGGTT	1.12 ± 0.25
TGGGAGTATA	1 ± 0.032
TGGGAGTTGT	0.989 ± 0.011
TGGGATAGGT	1.01 ± 0.06
TGGGATAGTG	1 ± 0.046
TGGGATATAT	0.954 ± 0.034
TGGGATATCT	1 ± 0.023
TGGGATCCAT	0.972 ± 0.015
TGGGATGAAG	0.982 ± 0.01
TGGGATGCTT	0.981 ± 0.011
TGGGATGGGC	1.05 ± 0.14
TGGGATGGGT	1.02 ± 0.092
TGGGATGTG	0.9906 ± 0.0049
TGGGATTAGG	0.969 ± 0.03
TGGGATTCCT	1.03 ± 0.073
TGGGATTGTA	0.987 ± 0.024
TGGGCAATGG	1.833 ± 0.018
TGGGCAGGGC	1.04 ± 0.058
TGGGCCATGT	0.9791 ± 0.0065
TGGGCCTTGT	1.023 ± 0.0033
TGGGCGGTA	0.963 ± 0.026
TGGGCGTAG	0.993 ± 0.011
TGGGCGTTGC	1.01 ± 0.018
TGGGCTAATT	1.02 ± 0.04

Sequence	switch fluorescence ratio
TGGGCTACTG	1.04 ± 0.04
TGGGCTGGGG	1.04 ± 0.023
TGGGCTTCAT	0.998 ± 0.028
TGGGCTTTAG	0.967 ± 0.041
TGGGGAAAAT	1.033 ± 0.0065
TGGGGAAAGC	0.983 ± 0.014
TGGGGAAGTG	0.987 ± 0.025
TGGGGAATCG	1.01 ± 0.046
TGGGGACAAT	0.987 ± 0.018
TGGGGACCCA	0.991 ± 0.018
TGGGGACCGT	1 ± 0.03
TGGGGACGAC	1.02 ± 0.063
TGGGGACTAT	1.02 ± 0.012
TGGGGAGTAA	1.015 ± 0.0092
TGGGGAGTGT	0.9849 ± 0.0076
TGGGGATAAT	1.01 ± 0.028
TGGGGATAGT	0.968 ± 0.018
TGGGGATATA	1.029 ± 0.0093
TGGGGATATT	0.9965 ± 0.0016
TGGGGATGTA	0.976 ± 0.014
TGGGGCAAAT	1.01 ± 0.034
TGGGGCAATT	1.1 ± 0.06
TGGGGCACCC	0.985 ± 0.01
TGGGGCATCG	1 ± 0.029
TGGGGCCGCG	1.048 ± 0.0092

Sequence	switch fluorescence ratio
TGGGGCGCCG	1.13 ± 0.18
TGGGGCGCTT	1 ± 0.033
TGGGGCTATA	0.995 ± 0.037
TGGGGCTTTA	1.06 ± 0.031
TGGGGGAAAT	1.25 ± 0.74
TGGGGGAAGC	0.984 ± 0.026
TGGGGGACTG	1.05 ± 0.054
TGGGGGAGCA	0.9811 ± 0.0094
TGGGGGATCA	0.978 ± 0.029
TGGGGGATCT	1 ± 0.038
TGGGGGCGGA	1.01 ± 0.032
TGGGGGCGTA	0.9641 ± 0.0025
TGGGGGCTTT	0.99 ± 0.023
TGGGGGGATT	1.01 ± 0.045
TGGGGGGCCT	0.991 ± 0.02
TGGGGGGCTA	1.02 ± 0.056
TGGGGGGGAA	0.999 ± 0.021
TGGGGGGGCA	1 ± 0.012
TGGGGGGGGG	1.02 ± 0.079
TGGGGGGTAT	1 ± 0.03
TGGGGGTAAG	0.989 ± 0.03
TGGGGGTATG	1 ± 0.02
TGGGGGTGCC	0.9758 ± 0.0037
TGGGGGTGTG	1.04 ± 0.082
TGGGGGTTAT	0.993 ± 0.042
